Measured values published in patent publication US20120284877.
Where a chain is given by its changes, count along the chain named.

Experiments:
Assay in all cases: cell_activity
Details in all cases: A. thaliana GUS recombination
[1] = molecular target: T1, NLS-I-SceI C term mod #1-AlcR(1-60) (VC-SAH128-3, SAH126-1) (Saccharomyces cerevisiae / Aspergillus nidulans) (UniProt P03882)
T1 sequence: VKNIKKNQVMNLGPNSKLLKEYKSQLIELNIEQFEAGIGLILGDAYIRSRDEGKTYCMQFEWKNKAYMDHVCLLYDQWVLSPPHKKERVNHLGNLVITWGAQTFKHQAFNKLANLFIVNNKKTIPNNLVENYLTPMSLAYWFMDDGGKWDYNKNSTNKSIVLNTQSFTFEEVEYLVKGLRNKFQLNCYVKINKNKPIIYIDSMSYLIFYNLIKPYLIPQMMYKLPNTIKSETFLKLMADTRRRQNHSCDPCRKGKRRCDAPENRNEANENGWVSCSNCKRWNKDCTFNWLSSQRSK

[2] = molecular target: T2, NLS-I-SceI C term mod #2-AlcR(1-60) (VC-SAH129-1, SAH127-1) (Saccharomyces cerevisiae / Aspergillus nidulans) (UniProt P03882)
T2 sequence: T1 sequence with T227A, K229A, S230N, E231Q, T232A

[3] = molecular target: T3, NLS-I-SceI-AlcR(1-60) (VC-SAH48-8, VC-SAH91-1) (Saccharomyces cerevisiae / Aspergillus nidulans) (UniProt P03882)
T3 sequence: T1 sequence with K229S

## AGCGGCCGCCTAGGGATCCGACAGGTTACGGGGCGGCGACCTCGCGGGTTTTCGCTATTTATGAAAATTTTCCGGTTTAAGGCGTTTCCGTTCTTCTTCGTCATAACTTAATGTTTTTATTTAAAATACCCTCTGAAAAGAAAGGAAACGACAGGTGCATTACCCTGTTATCCCTAGCGGATCCGCACGTTATCCCTAGCGGATCCGCACGTTATCCCTAT (double strand) [combined target site VC-SAH55-22 (#55)]
[1]
  activity (% blue plants): 100
[2]
  activity (% blue plants): 76
[3]
  activity (% blue plants): 49
